Data reported in patent publication US7772181B2, “Personal care compositions comprising modified variant Bowman Birk Protease Inhibitors” (Danisco US Inc., priority 2008, dated 2010).

B1: QQ8: octuple modified variant BBPI, SEQ ID NO:628 (protein)
chain: DPDDESSKPCCDQCICTKSNPPQCRCKDARRNECHSACKSCKCYNLYGWTCQCQDITDFCYEPCKPSE
modifications: synthetic BBPI variant
B2: KT8: octuple modified variant BBPI, SEQ ID NO:627 (protein)
chain: DPDDESSKPCCDQCICTKSNPPQCRCRDARPNACHSACKSCHCYNLYGWTCKCTDITDFCYEPCKPSE
modifications: synthetic BBPI variant
B3: RL8: octuple modified variant BBPI, SEQ ID NO:630 (protein)
chain: DPDDESSKPCCDQCICTKSNPPQCRCKDARRNACHSACKSCHCYNLYGWTCRCLDITDFCYEPCKPSE
modifications: synthetic BBPI variant
B4: BBIt-AV of SEQ ID NO: 640 (protein)
chain: DPDDESSKPCCDQCICTKSNPPQCRCRDARPNACHSACKSCACKYYLYWWCKCTDITDFCYEPCKPSE
modifications: synthetic BBIt-VEGK
B5: BBIt-AV of SEQ ID NO: 642 (protein)
chain: DPDDESSKPCCDQCICTKSNPPQCRCRDARPNACHSACKSCACKYDLYWWCKCTDITDFCYEPCKPSE
modifications: synthetic BBIt-VEGKD
B6: BBIt-AV of SEQ ID NO: 641 (protein)
chain: DPDDESSKPCCDQCICTKSNPPQCRCRDARPNACHSACKSCACTLWKSYWCKCTDITDFCYEPCKPSE
modifications: synthetic BBIt-VEGT
B7: BBIt-AV: truncated BBI-AV lacking the 5 C-terminal amino acids, unmodified variant, SEQ ID NO:187 (protein)
chain: DDESSKPCCDQCACTKSNPPQCRCSDMRLNSCHSACKSCACYNLYGWTCFCVDITDFCYEPCKPSE
modifications: synthetic BBIt-AV sequence
B8: V52L: BBIt-AV (SEQ ID NO:187) with single substitution V52L (protein)
chain: DDESSKPCCDQCACTKSNPPQCRCSDMRLNSCHSACKSCACYNLYGWTCFCLDITDFCYEPCKPSE
modifications: synthetic BBIt-AV sequence

Key:
[1] = target: T1, bovine pancreatic trypsin (Bos taurus, UniProt P00760); assay: Purification process yield of octuple variants (trypsin inhibition); type: biochemical
T1 construct: purchased Worthington (Worthington Biochemical Corp.)
T1 sequence (P00760 24-246): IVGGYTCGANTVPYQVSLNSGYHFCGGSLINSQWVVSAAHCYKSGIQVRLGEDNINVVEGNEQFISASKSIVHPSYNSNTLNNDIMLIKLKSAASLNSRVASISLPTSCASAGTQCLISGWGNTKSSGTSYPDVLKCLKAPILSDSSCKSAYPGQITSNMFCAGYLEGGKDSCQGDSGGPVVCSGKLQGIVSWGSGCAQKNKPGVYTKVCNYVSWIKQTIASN
Method: The best octuple variants selected in the shake flask screen were tested in the purification process essentially as described above, and including the following changes: 1) after growth, the culture was two fold diluted in glycine buffer (125 mM final concentration and pH adjusted to 9.0) instead of CHES buffer; 2) samples were activated with 2 mM 2-mercaptoethanol only (no sodium sulfite was added; 3) the acid precipitated fusion protein was resuspended in 100 ml of 125 mM glycine (rather than 350 ml of 40 mM glycine); and 4) the pellet collected after the acid/heat treatment was washed with 10 ml water, filtered, and this “washed pellet” filtrate was combined with the original filtrate. The final filtrates were concentrated and trimmed with Glu-BL as described above

[2] = target: T2, VegF (UniProt P15692); assay: BioVeris electrochemiluminescence competition binding assay, VEGF; settings: for IC50: Target protein VEGF, competition assay, concentration reducing BioVeris signal by one half, read-out: BioVeris Binding (apparent IC50)
T2 sequence (P15692 207-395): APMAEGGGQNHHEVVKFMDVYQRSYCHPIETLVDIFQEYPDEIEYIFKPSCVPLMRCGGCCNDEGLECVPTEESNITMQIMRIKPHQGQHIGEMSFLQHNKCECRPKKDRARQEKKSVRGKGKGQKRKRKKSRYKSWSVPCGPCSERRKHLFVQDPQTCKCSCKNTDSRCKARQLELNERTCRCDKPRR
Method: Briefly, after cleavage, the pH of the cleaved sample was adjusted to 5.5, the sample was then loaded onto the column (equilibrated with 25 mM MES pH 5.5). The free 2BBIck81 was washed through the column using 25 mM sodium acetate pH 5.0 while the BCE103 catalytic core remained bound to the resin. The 2BBIck81 fraction was concentrated by ultrafiltration and analyzed using an electrochemiluminescence (ECL) based binding assay (BioVeris). The Anti-VegF antibody (Santa Cruz) and VegF (PeproTech) were labeled with the electrochemiluminescent dye and biotin, respectively, as described by the manufacturer (BioVeris). All materials were in Dulbecco's PBS (Mediatech) supplemented with 0.1% TWEEN®-80. An initial dilution series of Anti-VegF antibody (125, 250 and 500 ng/ml) and VegF (100, 150, 200 and 250 ng/ml) were tested in the binding assay to determine the concentrations of each that would give a robust ECL signal.
For testing 2BBIck81 binding, 50 μL of 500 ng/ml ECL labeled Anti-VegF antibody, 50 μL of 250 ng/ml biotinylated VegF and 100 μL 2BBIck81 (series of 12.5, 15, 31.25, 62.5, 125, 250 or 500 ng/ml) were incubated at room temperature for 2 h with shaking. Then, 50 μL of 0.2 mg/ml streptavidin coated beads were added and the reaction was incubated at room temperature for 30 minutes. The ECL signal was measured using a BioVeris M8/384 Analyzer as described by the manufacturer (BioVeris).
The resulting vectors were used to transform B. subtilis BG6006 host cells. Cultures were grown in 500 ml of MBD medium and the BBI species were purified essentially as described above and by Vogtentanz et al., 2007 (Protein Expr Purif 55:40-52 [2007]). BioVeris binding assays were performed essentially as outlined in Example 5 and by the manufacturer. Binding of the modified variant BBIs to their respective target proteins was measured using a BioVeris® binding assay, which is a competition assay that determines the binding of the modified variant BBIs to its target protein (e.g. VEGF, FGF5, TGFβ and TNFα) in the presence or absence of a labeled competitor. The competitor can be a labeled monoclonal antibody raised against the target protein or a labeled native receptor of the target protein. The electrochemiluminescent binding assays were performed essentially as described in Example 5. The apparent IC50s were determined from binding data by determining the concentration of the BBI species needed to reduce the BioVeris signal by one half. BBI scaffolds without the target binding peptide in the chymotrypsin inhibitory loop were used as negative controls.

[3] = target: T1, bovine pancreatic trypsin; assay: BBIt-AV:BCE activity ratio, microtiter plate screens (primary, quadruplicate secondary); type: biochemical; settings: single substitution in BBIt-AV, in the presence of reducing agent
Method: The cultures in each master plate were thawed and a pin replicator was used to inoculate a new sterile microtiter plate containing 150 μl of Luria broth with 5 μg/ml chloramphenicol in each well. The plates were grown for ˜10 hrs in a humidified and aerated box as described above. For controls, the cultures in two wells were replaced with BBI and BBI-AV cultures that had been grown concurrently in 15 ml culture tubes (5 ml of Luria broth with 5 μg/ml chloramphenicol). After the cultures were grown, the plate was used to inoculate two duplicate 96-well filter plates (Millipore, MSGV2210) containing 150 μl of MBD medium (Vogtentanz et al., 2007) with 5 μg/ml chloramphenicol in each well by using a pin replicator. The duplicate plates were grown for ˜14 hours (as above, with plastic spacers placed between the stacked plates to allow for efficient air flow around the plates) and then 2-mecaptoethanol was added to each well in one of the plates to a final concentration of 2 mM. The plates were then grown for an additional ˜46 hours. The 96-well filter plates containing the culture broth (with or without added 2-mecaptoethanol) were then assayed for BBI and BCE activity.
Libraries were analyzed using dilutions of cultures grown in 96-well plates. Typically, the culture broth from each well was diluted (200 fold) in Assay Buffer (100 mM Tris pH 8.6, 0.005% Tween 80) and transferred to a second microtiter plate (CoStar 9017, Corning, Inc., Corning, N.Y.). Then, 20 μl of the diluted samples were transferred to a third microtiter plate. A standard curve was created by adding 20, 10, 5 or 2.5 μl of the diluted sBBI (SEQ ID NO:13) control culture to empty wells. Then, 80 μL of 50 ng/ml trypsin (bovine pancreatic trypsin, Worthington Biochemical Corp., Lakewood, N.J.) (prepared from a 1 mg/mL stock solution diluted into Assay Buffer) was added to each well of the plate. The reactions were mixed and incubated 15 min at room temperature. After the incubation, 100 μL of 0.5 mg/ml trypsin substrate (succinyl-Ala-Ala-Pro-Arg-para-nitroanilide, Bachem Bioscience, Inc., King of Prussia, Pa.), diluted in Assay Buffer from a 100 mg/ml solution in DMSO, was added to each well, mixed, and the absorbance at 405 nm was monitored for 15 min, with 1 time point recorded every 12 sec using a Spectra Max 250 (Molecular Devices). The data points were used to determine the rate for each reaction. The standard curve was generated by plotting the reaction rate versus the BBI volume and was fitted to a four-parameter equation. All data fitting was done using software supplied by the manufacturer (Molecular Devices Corp., Sunnyvale, Calif.). The activity of each BBIt-AV variant was calculated from the standard curve. Thus, the activities of all modified variant proteins were determined relative to the activity in the sBBI control (BBI-WT) culture.
The concentration of BCE was determined by an activity assay using purified BCE as a standard as described above and by (Vogtentanz et al. 2007). For the analysis of libraries grown in 96-well microtiter plates, 20 μl of culture broth were transferred to each well of a new microtiter plate. A standard curve was created by adding 20, 10, 5 or 2.5 μl of the diluted BBI-WT control culture to these empty wells. Then, 180 μl of the BCE substrate (0.25 μg/ml in Assay Buffer), 4-nitrophenyl β-D-cellobioside (Sigma, St. Louis, Mo.), was added to the plate. The plate was mixed and the absorbance at 405 nm monitored for 15 min, with 1 time point recorded every 12 s using a Spectra Max 250 (Molecular Devices Corp., Sunnyvale, Calif.). The data points were used to determine the rate for each reaction. The standard curve was generated by plotting rate versus culture volume and was fit to a quadratic curve. The BCE concentration in each variant culture was determined relative to the standard control culture. […]

[4] = target: T1, bovine pancreatic trypsin; assay: Shake flask screen: trypsin inhibition after growth, 2-mercaptoethanol activation and acid/heat treatment; type: biochemical; settings: single substitutions in BBIt-AV
Method: To increase expression, the gene copy of the selected clones was amplified by sequentially streaking colonies on Luria agar plates with 25 μg/ml chloramphenicol until the growth rate was similar to growth on Luria agar plates without chloramphenicol. Cultures of the selected variants and controls were grown in 3 ml Luria broth with 25 μg/ml chloramphenicol in 15 ml tubes for ˜10 h. These cultures (30 μl) were then used to inoculate 30 ml of MBD medium in 250 ml baffled shake flasks and grown at 37° C. and 225 rpm for ˜60 h.
For selection of the variants with the best yields, the culture broths were processed as follows. The broth was first activated by mixing 20 ml of broth with 20 ml of 0.25 M glycine buffer (pH 9.3) and the pH was adjusted to 9.0 with 50% NaOH. Then, 2-mercaptoethanol was added to the diluted cultures to a final concentration of 2 mM and the cultures were incubated overnight at room temperature with gentle shaking. The BBIt-AV moiety was then cleaved from the fusion protein by acid/heat treatment, which was accomplished by first adjusting the pH of the activated broth to pH 1.9-2.0 with sulfuric acid, and followed by incubation at 60° C. for 16 hours, with shaking. The BBIt-AV-BCE fusion protein and the BCE catalytic domain are not soluble at pH 2, whereas the free BBI species is soluble. After the cleavage reaction, the insoluble material was removed by centrifugation (5 min. at 3,000 rpm) and the supernatant was analyzed for trypsin inhibitory activity as described above. The BBI activity was also determined for the starting material and for the samples taken after activation. The BCE activity of the starting material was also determined as described above. The BBIt-AV:BCE activity ratios were then calculated for each step in process. The modified BBIt-AVs produced at the highest yields following the acid/heat treatment were selected for further study.

| Molecule | yield relative to wild-type sBBI [1] | IC50 [2] | also measured |
| --- | --- | --- | --- |
| B1 | better than the wild-type sBBI |  | purification yield relative to quintuple variant (SEQ ID NO:601) [1]: greater than that of the quintuple modified variant |
| B2 | better than the wild-type sBBI |  | purification yield relative to quintuple variant (SEQ ID NO:601) [1]: greater than that of the quintuple modified variant |
| B3 | better than the wild-type sBBI |  |  |
| B4 |  | 2 to 10 µM |  |
| B5 |  | 2 to 10 µM |  |
| B6 |  | 2 to 10 µM |  |
| B7 |  |  | binding to VEGF compared with full-length (untruncated) BBI-AV ([2]; labeled monoclonal antibody against VEGF as competitor): bind better than the full-length molecule |
| B8 |  |  | relative activity of the amino acid substitution (BBI:BCE activity ratio vs BBIt-AV), amino acid present in BBIsb3-AV [3]: L (+); activation level (BBIt-AV:BCE activity ratio after reducing agent) [4]: activate to similar levels |
